{"source": "patent US20250161419A1", "about": "“SERPIN PEPTIDES AND METHODS OF USING THE SAME” (SERPIN PHARMA, LLC, priority 2022, published 2025)", "molecules": {"B1": {"name": "EI-tPA: Recombinant human enzymatically inactive tissue-type plasminogen activator, known LRP1 agonist (protein)", "chain": "SYQVICRDEKTQMIYQQHQSWLRPVLRSNRVEYCWCNSGRAQCHSVPVKSCSEPRCFNGGTCQQALYFSDFVCQCPEGFAGKCCEIDTRATCYEDQGISYRGTWSTAESGAECTNWNSSALAQKPYSGRRPDAIRLGLGNHNYCRNPDRDSKPWCYVFKAGKYSSEFCSTPACSEGNSDCYFGNGSAYRGTHSLTESGASCLPWNSMILIGKVYTAQNPSAQALGLGKHNYCRNPDGDAKPWCHVLKNRRLTWEYCDVPSCSTCGLRQYSQPQFRIKGGLFADIASHPWQAAIFAKHRRSPGERFLCGGILISSCWILSAAHCFQERFPPHHLTVILGRTYRVVPGEEEQKFEVEKYIVHKEFDDDTYDNDIALLQLKSDSSRCAQESSVVRTVCLPPADLQLPDWTECELSGYGKHEALSPFYSERLKEAHVRLYPSSRCTSQHLLNRTVTDNMLCAGDTRSGGPQANLHDACQGDSGGPLVCLNDGRMTLVGIISWGLGCGQKDVPGVYTKVTNYLDWIRDNMRP"}}, "key": {"[1]": {"system": "phospho-ERK1/2", "assay": "Cell signaling analysis in PC12 cells, immunoblot of phospho-ERK1/2", "format": "cell-based, rat", "conditions": "48 h after transfection", "method": "Cell signaling analysis: Rat PC12 cells were purchased from ATCC (CRL-1721). PC12 cells were maintained in high glucose DMEM (Gibco, USA) containing 10% heat-inactivated FBS (Gibco, USA), 5% HyClone heat-inactivated horse serum (Cytiva, USA), penicillin (100 units/ml) and streptomycin ([…]) in 6-well plates that were pre-coated with 0.01 mg/ml type IV collagen (Sigma-Aldrich, St. Louis, MO, USA). Cells were transferred to serum-free medium (SFM) 4 h prior to adding effectors, and then treated with SP163M (2.4, 24 or 240 nM); EI-tPA (12 nM), NGF (0.36 nM), or vehicle (PBS) for 10 min. In some cases, cells were pre-incubated with the competitive antagonist of LRP1, GST-RAP (150 nM) for 15 min or electroporated using the Rat Neuron Nucleofector Amaxa Kit (Lonza Biosciences) and incubated with siRNA to silence LRP1 expression (siLRP1; M-094191-01-0010, Dharmacon) for 48 h. Control cells were transfected with non-targeting control (NTC) siRNA (NTC; D-001810-10-05, Dharmacon). […] Equal amounts of protein from cell lysates (20 μg), as determined by BCA Protein Assay (ThermoFisher Scientific, Waltham, MA, USA), were subjected to 10% SDS-PAGE and electro-transferred to nitrocellulose membranes. […]"}, "[2]": {"system": "capsaicin induced acute pain-related behavior in mice", "assay": "Intraplantar capsaicin model of acute nociception", "format": "in vivo, mouse", "conditions": "male mice; SP163M 2 μg/g s.c. or EI-tPA 2 μg/g i.v. 1 h before capsaicin", "method": "For the capsaicin studies, male (n=41) and female (n=37) mice were acclimated to the behavior testing facility for at least 1 h. Capsaicin was dissolved in 20% (2-hydroxypropyl)-β-cyclodextrin (Sigma-Aldrich, St. Louis, MO, USA) solution. […] Subsequently, 10 μl of 2 μg/μl capsaicin solution was injected into the plantar area of left hind paw. Immediately after capsaicin injection, mice were placed in a plexiglass box. Two observers, blinded to treatments, recorded the time spent licking and flinching the left hind paw over 10 min."}}, "data": [{"molecule": "B1", "values": [{"measurement": "activation of ERK1/2 in cells transfected with LRP1-specific siRNA", "setting": "[1]", "result": "ERK1/2 was not activated"}, {"measurement": "activation of ERK1/2 in cells transfected with NTC siRNA", "setting": "[1]", "result": "robustly activated ERK1/2"}, {"measurement": "capsaicin induced acute pain-related behavior (time spent licking over 10 min)", "setting": "[2]", "result": "blocked the capsaicin induced acute pain-related behavior"}]}]}
